{
  "source": "the nanobody polyreactivity screen of Harvey et al. (2022)",
  "data": [
    {"assay": "yeast display, Sf9 membrane polyspecificity reagent, FACS + sequencing; frameworks hold sequencing errors", "outline": "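Polyreactivity labels are assigned by the sorting gate from which each nanobody was recovered. The gates were low and high (top ~1%), set on anti-HA fluorescence for expression and streptavidin fluorescence for reagent binding. Before sorting, galactose-induced (36–48 hours) yeast display cells were stained for 1 hour at 4 °C with 10% biotinylated, detergent-solubilized Sf9 membrane reagent.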", "values": [
      {"sequence": "PVQLQESGGGLVQAGGSLRLSCAARGNIFDADIMGWYSQAPGKERELVACIADGGSTNYAHSVKGRFTISRDNAKNTVYLHMNSVKPEDTAVYYCAAIAYPDIPTCFDYYSDYFFRGQGTQVTVSS", "polyreactivity (PSR sort gate)": "low polyreactivity"},
      {"sequence": "PVQLVDSGGGLVQAGGSLRLSCAASGRTFGWYAMGWYRQAPGKERELVAAIRGVRTHYADSVKGRFTISRDNAKNTVYLQMNSLKPEDTAVYYCAARYYRWTKSEYGYWGQGTQVTVSS", "polyreactivity (PSR sort gate)": "high polyreactivity"},
      {"sequence": "PVQLVESGGGIVQAGGSLRLSCAASGTSFEYNAMGWSRPAPGKERELVAAITWSVGSTYYADSVKGRFTISRDNAKNTVYLQMNSLKPEDTAVYYCAAFDTASVYEFDYWGQGTQVTVSS", "polyreactivity (PSR sort gate)": "low polyreactivity"},
      {"sequence": "PVQLVESGGGLVHAGGRHRLSSAASGSIFNYYPMGWYRKAPGTERELVATISAGGSTNYADSVTGRFTISRDNAKNTVYLHKNRLKPEDTAVYYCNRARYYLTSYTYLTSYDYWGQGTQGTVSS", "polyreactivity (PSR sort gate)": "high polyreactivity"},
      {"sequence": "PVQLVESGGGLVQAGGSLRLSCAASGFTFSYNDMGWYRQAPGKERELVAAITSTGGTYYADSVKGRFTISRDNAKNTVYLQMNSLKPEDTAVYYCAADRIGGPGSYLYDYWGQGTQVTVSS", "polyreactivity (PSR sort gate)": "low polyreactivity"},
      {"sequence": "PVQLVESGGGLVQAGGSLRLSCAASGITIISYAMVWYRQAPGKERELVAAITKSGGRTYYADSVKGRFTISRDNAKNTVYLQMNSLKPEDTAVYYCAAYHLRDNRIGGGYWGQGTQVTVSS", "polyreactivity (PSR sort gate)": "high polyreactivity"},
      {"sequence": "PVQLVESGGGLVQAGGSLRLSCAASGNIFGVYPMGWYRQAPGKERELVAVITSSGSTYADSVKGRFTISRDNAKNTVFLQMNSLKPEDTAVYYCNTDGYYHPHGFDYYRYYYWGQGTQVTVSS", "polyreactivity (PSR sort gate)": "high polyreactivity"},
      {"sequence": "PVQLVESGGGLVQAGGSLRLSCAASGRIFAQYAMGWYRQAPGNERELVADISSGVRTYAASVKGRFTISRDNAKNTVSFQMNSLKPEDTAVYYFNAYYIIFTRNDYWGQGTQVTVSS", "polyreactivity (PSR sort gate)": "low polyreactivity"},
      {"sequence": "PVQLVESGGGLVQAGGSLRLSCAASGSIFGVNDMGWYIQGAGKERELVAGINQGGGSTYYADSVKGRFTISRDIAKNTVYLQMNSLKPEDTAVYYCAAVRYVLRSPARYGYWGQGTQVTVSS", "polyreactivity (PSR sort gate)": "low polyreactivity"},
      {"sequence": "PVQLVESGGGLVQAGGSLRLSCAASGSTFYIYAMGWYRQAPGKERELVAAITSRGTITSYADSVKGRFTISRDNAKNTVYLQMNSLKPEDTAVYYCAADYWQDGIAYWYDYWGQGTQVTVSS", "polyreactivity (PSR sort gate)": "low polyreactivity"},
      {"sequence": "PVQLVESGGGLVQAGGSLRLSCAASGYTFSYNAMGWYRQAPGKERELVAAIYRGGRTYYADSVKGRFTISRDNAKNTVYLQMNSLKPEDTAVYYCAAKRWTTKNGFYEYPYYYWGQGTQVTVSS", "polyreactivity (PSR sort gate)": "high polyreactivity"},
      {"sequence": "PVQLVESGGGLVQAGGSLRLSCDAYGSIFAYNAMGWYRQAPGKERELVAAISVSDGITYYADSVKGRFTISRDNAKNTVYLQMISLKPEDTAVYYCPARTRGPSRAYDYWGQGTQGTVSS", "polyreactivity (PSR sort gate)": "low polyreactivity"},
      {"sequence": "PVQLVESRGGLVQAGGSLRLSCAASGIIFQRYAMGWYRQAPGKERELVAAINFSGGSTYYADSVKGRFTISRDNAKNTVYLQMNSLKPEDTSVYYCARAGRYAAYSPFYYWGQGTQVTVSS", "polyreactivity (PSR sort gate)": "high polyreactivity"},
      {"sequence": "QAQLQESGGSLLQAGGGLRLSCAASGYISVGSVMGWYRQAPSKERELVASIDQGANTNYADSVKGRYTISRDNAKNNVYLQMNSLKPEDSAVYYCATETTYILNYWGQGTQVTVSS", "polyreactivity (PSR sort gate)": "low polyreactivity"},
      {"sequence": "QAQLQESGGSLVQAGGGLRLSCAAIGYISVGSVMGWYRQAPSKERELVASIDQGANTNYADSVKGRFTISRDNAKNNVYLQMNSLKPEDTAVYYCATETTYILNYWGQGTQVTVSS", "polyreactivity (PSR sort gate)": "low polyreactivity"},
      {"sequence": "QAQLVDSGGGLVQEGGSLRLSCAASGLIFDANVMGSYRQAPGKERELVAAISWSGGRTYYADSVKGRFTISRDNAKNTVFFQMNSMNPEVTAVYYCAADTWPDMHDYWGQGTQVTVSS", "polyreactivity (PSR sort gate)": "low polyreactivity"},
      {"sequence": "QAQRVESGGGLGQAGGSLRLSCAASGRTFVRYTMGWYRQAPGKERELVAAISRSGGSTYYADSVKRRYTISRANAKNTVYLQLNSLKPEDTAVYYCAARRNAYHRDYYWGQGTQVTVSS", "polyreactivity (PSR sort gate)": "high polyreactivity"}
    ]}
  ]
}
